These results are taken from article PMC8754649, “Structural basis of dimerization and nucleic acid binding of human DBHS proteins NONO and PSPC1” (Nucleic Acids Research, 2021).

Data set [1] deals with the molecule itself. As to the kind of experiment: crystal structure; NONO aa53–312 homodimer; six dimers (12 monomers) in the asymmetric unit; 2.60 Å; crystallization and phasing described in ref. 38.
Data set [2] concerns the molecule itself. The experiment in a line: crystal structure; PSPC1 aa61–320 homodimer; one dimer in the asymmetric unit; 3.17 Å; hanging drop, 100 mM malic acid pH 7.0, 28% PEG 3350, 100 mM Tris pH 7.0.

B1: NONO-DBHS (non-POU domain-containing octamer-binding protein, aa53–312) (domain or fragment, human, UniProt Q15233 53-312, looked up)
chain: EGLTIDLKNFRKPGEKTFTQRSRLFVGNLPPDITEEEMRKLFEKYGKAGEVFIHKDKGFGFIRLETRTLAEIAKVELDNMPLRGKQLRVRFACHSASLTVRNLPQYVSNELLEEAFSVFGQVERAVVIVDDRGRPSGKGIVEFSGKPAARKALDRCSEGSFLLTTFPRPVTVEPMDQLDDEEGLPEKLVIKNQQFHKEREQPPRFAQPGSFEYEYAMRWKALIEMEKQQQDQVDRNIKEAREKLEMEMEAARHEHQVMLM
notes: Cloned into the first expression cassette of pET-Duet1; also called NONO homodimer; P54nrb; not shown: His6, N-terminal, cleaved
B1: the binding result in data set [1] is reported as “binds”.

B2: PSPC1-DBHS (paraspeckle protein component 1, aa61–320) (domain or fragment, human, UniProt Q8WXF1 61-320, looked up)
chain: MGFTIDIKSFLKPGEKTYTQRCRLFVGNLPTDITEEDFKRLFERYGEPSEVFINRDRGFGFIRLESRTLAEIAKAELDGTILKSRPLRIRFATHGAALTVKNLSPVVSNELLEQAFSQFGPVEKAVVVVDDRGRATGKGFVEFAAKPPARKALERCGDGAFLLTTTPRPVIVEPMEQFDDEDGLPEKLMQKTQQYHKEREQPPRFAQPGTFEFEYASRWKALDEMEKQQREQVDRNIREAKEKLEAEMEAARHEHQLMLM
notes: human PSPC1, conserved DBHS region, aa61–320 relative to UniProt entry PSPC1_HUMAN; also called PSPC1 homodimer; PSPC1 (aa61–320); source: E. coli Rosetta2 (DE3), purified (Ni Hi-Trap, TEV digestion, reverse Hi-Trap, Superdex 200)
Consider B2, for which the binding result in data set [2] is “binds”.
